In assay [1] the target is T1, bovine serum albumin (BSA) (bovine, UniProt P02769 25-607).
T1 construct: Carrier alone, without hapten; also called carrier protein BSA
Kind of assay: solid-phase ELISA.

Assay [2] has as its target T2, rabbit myelin basic protein (rabbit, UniProt P25274 1-168).
T2 construct: Bought from Sigma; also called rabbit MBP
Put plainly: direct ELISA, antigen coated at 5 µg/ml.
Experimental: (§1) Human RBC spectrin, bovine myosin (heavy chain), mouse albumin, mouse hemoglobin, mouse transferrin, hen egg lysozyme, rabbit actin, rabbit myelin basic protein, and keyhole limpet hemocyanin (KLH) were purchased from Sigma. Proteins were tested for purity by SDS-polyacrylamide gel electrophoresis. […] Protein antigens were used at 5 μg/ml, and hapten was used at 2 μM. The proteins and hapten-BSA antigens were coated onto polystyrene or polyvinylchloride microtiter plates in 0.1 M carbonate buffer, pH 9.5, for 18 hours at 4° C. Coated plates were blocked with PBS containing 5% nonfat dry mild and 0.05% Tween 20 for 2 hours at room temperature, and incubated with mAbs diluted in blocking buffer (2 μg/ml) for 4 hours at room temperature. […] Bound IgM was detected with biotinylated goat anti-mouse IgM (p chain specific; Jackson Immunoresearch, West Grove, Pa.) followed by alkaline phosphatase conjugated to streptavidin, with p-nitrophenylphosphate as the chromogenic substrate. Absorbance was determined at 405 nm.

The target in assay [3] is T3, mouse albumin (mouse, UniProt P07724 25-608).
T3 construct: Bought from Sigma
Put plainly: direct ELISA, antigen coated at 5 µg/ml. A general note: ELISA stands for enzyme-linked immunosorbent assay.
Experimental: as §1

Assay [4] concerns the target T4, mouse transferrin (mouse, UniProt Q921I1 20-697).
T4 construct: Bought from Sigma
Kind of assay: direct ELISA, antigen coated at 5 µg/ml.
Experimental: as §1

The target in assay [5] is T5, mouse hemoglobin (mouse, UniProt P01942 2-142; P02088 2-147).
T5 construct: Bought from Sigma; also called Mo Hb
T5 sequence (P01942 2-142 limits assumed, chain 1 of 2): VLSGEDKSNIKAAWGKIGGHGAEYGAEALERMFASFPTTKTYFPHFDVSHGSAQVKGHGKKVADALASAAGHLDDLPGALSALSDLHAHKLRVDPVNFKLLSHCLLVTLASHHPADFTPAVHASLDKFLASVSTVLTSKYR
T5 sequence (P02088 2-147 limits assumed, chain 2 of 2): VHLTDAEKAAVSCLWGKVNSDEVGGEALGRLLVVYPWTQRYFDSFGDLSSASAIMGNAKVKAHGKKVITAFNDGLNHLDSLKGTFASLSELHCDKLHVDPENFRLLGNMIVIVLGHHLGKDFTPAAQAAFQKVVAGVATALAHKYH
Put plainly: direct ELISA, antigen coated at 5 µg/ml.
Experimental: as §1

Assay [6] concerns the target T6, hen egg lysozyme (hen (chicken), UniProt P00698 19-147).
T6 construct: Bought from Sigma; also called HEL
Kind of assay: direct ELISA, antigen coated at 5 µg/ml.
Experimental: as §1

Assay [7] concerns the target T7, human RBC spectrin (human, UniProt P02549 1-2419; P11277 2-2137).
T7 construct: Bought from Sigma; also called human erythrocyte spectrin
Put plainly: direct ELISA, antigen coated at 5 µg/ml.
Experimental: as §1

Assay [8] has as its target T7, human RBC spectrin. Put plainly: direct ELISA, mAb at 2 µg/ml.
Experimental: as §1

T7 sequence (P02549 whole entry, chain 1 of 2): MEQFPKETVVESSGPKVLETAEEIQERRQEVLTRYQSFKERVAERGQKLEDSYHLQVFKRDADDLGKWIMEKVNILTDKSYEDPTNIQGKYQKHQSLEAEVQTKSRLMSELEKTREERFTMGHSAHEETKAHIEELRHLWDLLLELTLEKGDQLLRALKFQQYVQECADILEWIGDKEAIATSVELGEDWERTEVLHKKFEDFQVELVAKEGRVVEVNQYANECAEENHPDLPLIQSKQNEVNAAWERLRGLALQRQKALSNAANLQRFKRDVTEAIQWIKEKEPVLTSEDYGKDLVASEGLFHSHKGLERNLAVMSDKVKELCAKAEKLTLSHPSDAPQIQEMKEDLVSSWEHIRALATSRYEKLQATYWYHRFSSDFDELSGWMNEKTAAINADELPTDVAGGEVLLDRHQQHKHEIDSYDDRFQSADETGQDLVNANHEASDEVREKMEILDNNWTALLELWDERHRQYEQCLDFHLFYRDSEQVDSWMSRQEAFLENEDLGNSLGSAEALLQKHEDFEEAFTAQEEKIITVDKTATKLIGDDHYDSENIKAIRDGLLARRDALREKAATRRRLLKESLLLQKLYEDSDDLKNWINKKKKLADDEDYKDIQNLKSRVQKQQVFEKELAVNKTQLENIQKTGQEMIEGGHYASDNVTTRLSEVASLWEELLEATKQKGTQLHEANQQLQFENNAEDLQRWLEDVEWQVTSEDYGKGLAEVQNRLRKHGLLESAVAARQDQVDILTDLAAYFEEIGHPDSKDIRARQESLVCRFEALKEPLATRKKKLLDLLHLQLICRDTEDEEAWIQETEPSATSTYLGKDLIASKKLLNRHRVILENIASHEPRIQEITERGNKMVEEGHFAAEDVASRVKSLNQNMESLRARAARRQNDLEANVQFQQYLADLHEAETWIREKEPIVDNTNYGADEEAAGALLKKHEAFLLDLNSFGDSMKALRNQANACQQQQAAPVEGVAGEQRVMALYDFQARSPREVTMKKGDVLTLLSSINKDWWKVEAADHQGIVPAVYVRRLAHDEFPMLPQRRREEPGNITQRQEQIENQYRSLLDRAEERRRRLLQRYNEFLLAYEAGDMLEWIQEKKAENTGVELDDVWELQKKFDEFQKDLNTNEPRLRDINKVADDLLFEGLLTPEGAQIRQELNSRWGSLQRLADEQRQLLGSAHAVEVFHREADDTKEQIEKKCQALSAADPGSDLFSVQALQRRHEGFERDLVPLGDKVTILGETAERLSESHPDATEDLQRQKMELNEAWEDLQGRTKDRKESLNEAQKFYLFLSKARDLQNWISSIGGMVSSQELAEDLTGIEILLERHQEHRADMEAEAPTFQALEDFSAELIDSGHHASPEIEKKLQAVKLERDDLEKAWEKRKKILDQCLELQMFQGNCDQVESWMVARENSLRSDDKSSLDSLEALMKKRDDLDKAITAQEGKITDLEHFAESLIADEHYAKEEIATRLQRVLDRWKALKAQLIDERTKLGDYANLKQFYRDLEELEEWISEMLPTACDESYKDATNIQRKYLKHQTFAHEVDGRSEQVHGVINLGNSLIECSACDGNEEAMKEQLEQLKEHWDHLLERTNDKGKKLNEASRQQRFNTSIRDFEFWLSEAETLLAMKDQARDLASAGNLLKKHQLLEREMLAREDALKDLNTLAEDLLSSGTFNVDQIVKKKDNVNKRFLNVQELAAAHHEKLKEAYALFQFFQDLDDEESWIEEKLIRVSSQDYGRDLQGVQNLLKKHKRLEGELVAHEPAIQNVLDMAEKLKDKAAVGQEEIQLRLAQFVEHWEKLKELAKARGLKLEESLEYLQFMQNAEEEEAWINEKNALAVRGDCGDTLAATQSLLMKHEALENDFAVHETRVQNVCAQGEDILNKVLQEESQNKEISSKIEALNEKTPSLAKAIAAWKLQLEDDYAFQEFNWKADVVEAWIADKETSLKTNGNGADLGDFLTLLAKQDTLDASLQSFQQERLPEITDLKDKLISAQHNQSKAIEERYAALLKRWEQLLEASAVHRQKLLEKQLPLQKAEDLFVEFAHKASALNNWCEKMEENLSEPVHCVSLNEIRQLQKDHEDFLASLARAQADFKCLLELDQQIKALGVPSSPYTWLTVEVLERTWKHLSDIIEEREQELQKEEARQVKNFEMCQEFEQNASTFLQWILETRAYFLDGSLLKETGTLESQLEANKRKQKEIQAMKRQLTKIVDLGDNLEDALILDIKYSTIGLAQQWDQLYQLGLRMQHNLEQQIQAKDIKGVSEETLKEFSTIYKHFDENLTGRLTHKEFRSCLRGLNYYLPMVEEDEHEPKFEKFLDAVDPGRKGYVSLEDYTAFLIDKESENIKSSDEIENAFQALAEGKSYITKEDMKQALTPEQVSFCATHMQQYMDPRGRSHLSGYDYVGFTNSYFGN
T7 sequence (P11277 2-2137, chain 2 of 2): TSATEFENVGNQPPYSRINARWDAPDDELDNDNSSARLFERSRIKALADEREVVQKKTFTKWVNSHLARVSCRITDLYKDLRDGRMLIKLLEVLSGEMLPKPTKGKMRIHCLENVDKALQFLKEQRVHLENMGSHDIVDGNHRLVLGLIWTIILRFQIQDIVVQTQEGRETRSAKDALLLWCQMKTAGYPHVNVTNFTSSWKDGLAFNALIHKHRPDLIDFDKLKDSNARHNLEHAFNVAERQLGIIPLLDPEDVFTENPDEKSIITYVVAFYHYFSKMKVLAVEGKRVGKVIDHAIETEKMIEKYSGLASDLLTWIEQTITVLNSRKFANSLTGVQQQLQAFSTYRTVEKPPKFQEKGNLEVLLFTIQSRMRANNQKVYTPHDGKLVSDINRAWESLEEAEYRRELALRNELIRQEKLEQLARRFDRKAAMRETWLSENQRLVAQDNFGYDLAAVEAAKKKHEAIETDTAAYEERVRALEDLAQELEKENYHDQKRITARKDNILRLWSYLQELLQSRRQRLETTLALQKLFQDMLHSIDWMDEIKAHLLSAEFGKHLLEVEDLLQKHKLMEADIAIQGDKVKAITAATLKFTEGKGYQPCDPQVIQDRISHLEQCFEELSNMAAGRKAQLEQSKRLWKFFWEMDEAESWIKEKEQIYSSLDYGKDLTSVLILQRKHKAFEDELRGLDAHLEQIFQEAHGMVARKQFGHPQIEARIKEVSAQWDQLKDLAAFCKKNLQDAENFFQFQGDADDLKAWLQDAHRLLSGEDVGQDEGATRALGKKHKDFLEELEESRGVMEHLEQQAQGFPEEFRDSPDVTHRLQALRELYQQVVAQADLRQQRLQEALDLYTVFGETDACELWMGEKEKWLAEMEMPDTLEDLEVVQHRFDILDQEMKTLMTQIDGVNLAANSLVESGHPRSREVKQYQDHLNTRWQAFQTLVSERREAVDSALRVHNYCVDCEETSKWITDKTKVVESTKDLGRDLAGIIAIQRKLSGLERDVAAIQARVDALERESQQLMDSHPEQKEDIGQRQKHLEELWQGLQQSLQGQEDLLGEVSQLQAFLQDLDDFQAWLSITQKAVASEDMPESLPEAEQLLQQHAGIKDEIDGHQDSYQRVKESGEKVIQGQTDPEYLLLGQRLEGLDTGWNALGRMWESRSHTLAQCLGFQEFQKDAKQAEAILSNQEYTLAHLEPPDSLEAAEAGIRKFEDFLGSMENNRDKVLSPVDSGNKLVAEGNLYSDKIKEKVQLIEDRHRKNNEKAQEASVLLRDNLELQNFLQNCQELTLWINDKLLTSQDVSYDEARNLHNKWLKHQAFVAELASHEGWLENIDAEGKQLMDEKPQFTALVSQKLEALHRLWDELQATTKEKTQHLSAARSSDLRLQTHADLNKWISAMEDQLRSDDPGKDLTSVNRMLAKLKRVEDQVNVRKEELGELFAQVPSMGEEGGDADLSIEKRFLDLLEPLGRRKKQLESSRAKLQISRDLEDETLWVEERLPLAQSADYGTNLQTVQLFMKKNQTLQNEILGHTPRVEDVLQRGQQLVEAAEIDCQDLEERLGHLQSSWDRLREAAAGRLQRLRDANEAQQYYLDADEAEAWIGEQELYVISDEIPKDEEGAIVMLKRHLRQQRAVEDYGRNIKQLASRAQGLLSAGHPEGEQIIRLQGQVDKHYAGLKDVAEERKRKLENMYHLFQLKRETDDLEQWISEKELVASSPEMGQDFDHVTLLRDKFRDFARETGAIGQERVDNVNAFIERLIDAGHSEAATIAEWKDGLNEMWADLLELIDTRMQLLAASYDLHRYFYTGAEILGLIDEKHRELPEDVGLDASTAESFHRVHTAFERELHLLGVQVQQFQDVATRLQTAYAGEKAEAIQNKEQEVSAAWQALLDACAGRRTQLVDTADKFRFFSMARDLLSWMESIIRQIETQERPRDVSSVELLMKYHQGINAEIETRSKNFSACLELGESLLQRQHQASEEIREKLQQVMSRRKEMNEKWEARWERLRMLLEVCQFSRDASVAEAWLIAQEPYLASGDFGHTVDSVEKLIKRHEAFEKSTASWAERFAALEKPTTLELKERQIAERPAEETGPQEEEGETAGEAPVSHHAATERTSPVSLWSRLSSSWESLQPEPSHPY
T2 sequence (P25274 whole entry): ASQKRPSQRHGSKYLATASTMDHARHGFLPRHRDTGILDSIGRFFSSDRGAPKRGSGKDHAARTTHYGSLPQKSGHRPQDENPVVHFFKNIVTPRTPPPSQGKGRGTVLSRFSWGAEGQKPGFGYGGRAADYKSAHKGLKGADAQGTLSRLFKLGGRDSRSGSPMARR

B1: monoclonal antibody SCH94.03 (antibody, V domains shown)
VH: QVQLQQPGTELVKPGASVKLSCKASGYTFTSYWMHWVKQRPGQGLEWIGNINPSNGGTNYNEKFKSKATLTVDKSSSTAYMQLSSLTSEDSAVYYCARRAPYYGSRNFDYWGQGTTLTVSS
VL: DIQMTQTTSSLSASLGDRVTISCRASQDISNYLNWYQQKPDGTVKLLIYYTSRLHSGVPSRFSGSGSGTDYSLTISNLEQEDIATYFCQQGNTLPWTFGGGTKLEIKR
On to B1, for which the binding result in assay [1] was “no binding”.

B2: mAb A2B5 (antibody, mouse IgM, V domains shown)
VH: EVKLVESGGGLVQPGGSLRLSCATSGFTFSDFYMEWVRQPPGKRLEWIAASRNKANDYTTEYSASVKGRFIVSRDTSQSILYLQMNALRAEDTAIYYCARDARQLGLPAWFAYWGQGTLVTVSA
VL: QIVLTQSPAIMSASPGEKVTISCSASSSVSYMYWYQQKPGSSPKPWIYRTSNLASGVPARFSGSGSGTSYSLTISSMEAEDAATYYCQQYHSYPLTFGAGTKLELKR
notes: Mouse IgM kappa
With B2, the binding result in assay [2], in assay [3], in assay [4], in assay [5], in assay [6] and in assay [7] was “no binding (tested: mAbs at 2 µg/ml)” in each case.

B3: mAb O1 (antibody, V domains shown)
VH: QVQLQQSGPELVKPGALVKISCKASGYTFTSYDINWVKQRPGQGLEWIGWIYPGDGSTKYNEKFKGKATLTADKSSSTAYMQLSSLTSENSAVYFCARGARFYWYFDVWGAGTTVTVSS
VL: DVQITQSPSYLAASPGETITINCRASKSISKYLAWYQEKPGKTNKLLIYSGSTLQSGIPSRFSGSGSGTDFTLTISSLEPEDFAMYYCQQHNEYPYTFGGGTKLEIKR
notes: Mouse IgM kappa; Entries may include the leader peptide; The hybridoma also makes the MOPC21 kappa chain; also called 01
On to B3, for which, in assay [8], the binding result is “binds”.

Source of the values: patent US20180086821A1 (MAYO FOUNDATION FOR MEDICAL EDUCATION AND RESEARCH, published 2018).
